Test results: patent publication US6861578B1, “Method for plant protection against insects or nematodes by transformation with a nucleic acid encoding equistatin” (Plant Research International B.V., priority 1997, dated 2005)

Legend:
cathepsin D [1] = biological target: T1, cathepsin D (Homo sapiens, UniProt P07339); assay: Incubation of equistatin with cathepsin D, reverse-phase HPLC (substrate test); type: biochemical; details: incubated in different molar concentrations and times
Description: In panel A the equistatin was incubated with cathepsin D in a final molar concentration of 2:1, and in panel B the equistatin was fragmented using 1% (w/w) β-trypsin. Identities of peaks were based on the N-terminal sequences.
(§1) Equistatin was isolated from sea anemone A. equina by a procedure that was described previously utilizing its inhibitory activity toward cysteine proteinase, papain (Lenarcic et al. (1997) J. Biol. Chem. 272: 13899). Besides cysteine proteinases, equistatin was screened for the inhibition of two other classes of proteinases, aspartic proteinases (cathepsin D) and serine proteinase (trypsin). […] 500 μg equistatin was incubated with 5 μg of β-trypsin in 0.5 ml of 0.1 M Tris/HCl buffer pH 8.0, for 40 min at 37° C. Reaction was stopped by the addition of trifluoroacetic acid. The 9-trypsin digest of equistatin was separated by high performance liquid chromatography (Milton Roy Co.) using a reverse phase Vydac C18 column equilibrated with 5% acetonicril containing 0.1% (v/v) trifluoroacetic acid. Elution was performed using a linear gradient of 80% (v/v) acetonitrile containing 0.1% (v/v) trifluoroacetic acid. Absorbance was monitored at 215 nm. Two major peaks were obtained on the reverse-phase. HPLC (FIG. 9B). The molecular weights, estimated by the SDS PAGE under non-reducing conditions, were about 7,000 and 14,000 (FIG. 10). […]

[2] = system: tri-peptidil-peptidase and endoprotease activity of Colorado potato beetle larval gut extracts; assay: Tri-peptidil-peptidase and endoprotease activity of Colorado potato beetle gut extract, pGlu-Phe-Leu-pNA; type: biochemical, Leptinotarsa decemlineata
Excerpt: (§2) Guts of final instar Colorado potato beetle larvae reared on methyl jasmonate induced plants were isolated and extracted essentially as described (Bolter and Jongsma, J. Insect Physiol. 41: 1071-1078). In these gut extracts the proteases that are sensitive to the protease inhibitors of potato are already complexed. The residual protease activity is composed of potato protease-inhibitor-insensitive proteases which were induced in response to the methyl jasmonate induced potato inhibitors. These proteases are the proteases that render the beetle larvae insensitive to protease inhibitor defense of the potato plant. Wle tested a broad range of different cysteisie protease inhibitors for activity specifically against these induced potato protease inhibitor-insensitive cysteine protesses. Nearly all of these inhibitors were purified at the Jozef Stefan Institute in Slovenia. Testing their potential against Colorado potato beetle was done using both general protein substrates (azocasein, table 2) as well as specific synthetic substrates (L-Arg-pNA, table 3; pGlu-Phe-Leu-pNA, table 4; Z-Phe-Arg-pNA, table 5; Z-Arg-Arg-pNA, table 6). In specific cases inhibitors were tested at two concentrations, eauimolar and in excess to the protease, in order to obtain an indication of the tightness of the complex. […] Importantly, this class of inhibitors was capable of inhibiting nearly all general cysteine protease activity. The equistatin peptide molecule and a functional derivative thereof were not very active against the aminopeptidase-like cysteine protease activity. […] The best combination of inhibitors for full toxicity against the Colorado potato beetle would therefore be a combination of equistatin or p41 invariant chain fragment and stefin-like inhibitors.

[3] = system: endoprotease activity of Colorado potato beetle larval gut extracts; assay: Narrow spectrum endoprotease activity of Colorado potato beetle gut extract, Z-Arg-Arg-pNA; type: biochemical, Leptinotarsa decemlineata
Excerpt: as §2

[4] = system: endoprotease activity of Colorado potato beetle larval gut extracts; assay: Broad spectrum endoprotease activity of Colorado potato beetle gut extract, Z-Phe-Arg-pNA; type: biochemical, Leptinotarsa decemlineata
Excerpt: as §2

cathepsin D [5] = biological target: T1, cathepsin D; assay: Cathepsin D inhibition, steady-state hydrolysis of chromophoric substrate; active site titration; type: biochemical
Description: Residual activity is expressed as percent of control activity in samples containing no inhibitor.
The kinetics of binding of equistatin to cathepsin D was performing using a synthetic substrate which contains a chromophore, such as a nitrophenylalanine residue, in the P1′ position. The assay sensitivity, afforded by H-Pro-Thr-Glu-Phe*Nph-Arg-Leu-OH (SEQ ID NO:8) as substrate, alowed us to use 6.4 nM concentration of the enzyme as a minimal concentration in the test.

trypsin = assay: Screen of equistatin against serine proteinase trypsin; limited proteolysis; type: biochemical; details: screened against cathepsin D and trypsin
Description: as §1, with “10). Determination of the N-termini of the both fragments allowed them to be located in the sequence of the equistatin molecule shown schematically in FIG. 11.” for “10).”

[6] = system: amino-peptidase activity of Colorado potato beetle larval gut extracts; assay: Amino-peptidase activity of Colorado potato beetle gut extract, L-Arg-pNA; type: biochemical, Leptinotarsa decemlineata
Excerpt: as §2

papain = biological target: T2, papain (Carica papaya, UniProt P00784); assay: Kinetic analysis of papain inactivation (continuous rate assay); type: biochemical
T2 sequence (P00784 134-345): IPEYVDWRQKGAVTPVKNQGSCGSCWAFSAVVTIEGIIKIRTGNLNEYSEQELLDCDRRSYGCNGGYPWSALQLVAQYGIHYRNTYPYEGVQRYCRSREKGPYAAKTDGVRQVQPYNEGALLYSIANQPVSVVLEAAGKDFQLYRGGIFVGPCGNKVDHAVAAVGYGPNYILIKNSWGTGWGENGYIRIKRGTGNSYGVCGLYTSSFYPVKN

T1 sequence (P07339 65-412, species assumed): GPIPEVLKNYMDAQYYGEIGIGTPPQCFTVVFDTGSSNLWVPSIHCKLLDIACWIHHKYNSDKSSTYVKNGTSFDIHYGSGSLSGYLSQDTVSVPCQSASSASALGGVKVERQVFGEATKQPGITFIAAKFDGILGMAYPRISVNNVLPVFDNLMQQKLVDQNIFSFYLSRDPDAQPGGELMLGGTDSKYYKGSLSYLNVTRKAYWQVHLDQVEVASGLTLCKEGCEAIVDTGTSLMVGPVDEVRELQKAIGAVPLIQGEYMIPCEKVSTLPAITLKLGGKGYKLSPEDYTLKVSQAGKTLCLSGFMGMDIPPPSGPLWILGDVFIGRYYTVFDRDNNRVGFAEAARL

B1: equistatin: cysteine/aspartic protease inhibitor from sea anemone Actinia equina with three type I repeated thyroglobulin domains; purified or recombinant from E. coli (protein)
chain: SLTKCQQLQASANSGLIGTYVPQCKETGEFEEKQCWGSTGYCWCVDEDGKEILGTKIRGSPDCSRRKAALTLCQMMQAIIVNVPGWCGPPSCKADGSFDEVQCCASNGECYCVDKKGKELEGTRQQGRPTCERHLSECEEARIKAHSNSLRVEMFVPECLEDGSYNPVQCWPSTGYCWCVDEGGVKVPGSDVRFKRPTC
modifications: left off: large carriers; small tags and cut ends
notes: purified or recombinant from E. coli
B1 was tested, and the “degradation of equistatin by cathepsin D” value (cathepsin D [1]) was “No degradation products were observed”, the “% of residual activity, equimolar” value ([2]; equimolar) was 10% and the “% of residual activity, excess inhibitor” value ([2]; excess inhibitor) was −5%. For the same molecule, the “% of residual activity, equimolar” value ([3]; equimolar) was 20%, the “% of residual activity, excess inhibitor” value ([3]; excess inhibitor) was −5% and the “% of residual activity, equimolar” value ([4]; equimolar) was 30%. The “% of residual activity, excess inhibitor” value ([4]; excess inhibitor) was 20%, the Ki (cathepsin D [5]; cathepsin D, steady state velocity, chromophoric substrate) was 0.3 nM and the “equistatin needed for the saturation of 1 mol of cathepsin D” value (cathepsin D [5]; titration of cathepsin D with equistatin (FIG. 12)) was 1 mol. The “inhibitory effect on trypsin (screen)” value (trypsin) was “observed only when it was reacting with cathepsin D”, the “% of residual activity, equimolar” value ([6]; equimolar) was 85% and the “% of residual activity, excess inhibitor” value ([6]; excess inhibitor) was 75%. For the same molecule, the Ki (papain; Ki calculated from the ratio kd/ka) was 0.57 ± 0.04 nM, the “10^4 × kd” value (papain; continuous rate assay, printed value is 10^4 × kd) was 65 ± 1.5 s^−1 and the “10^−6 × ka” value (papain; continuous rate assay, printed value is 10^−6 × ka) was 12 ± 0.6 M^−1 s^−1.
